Experimental data taken from patent publication US20230034906A1 (TRINOMAB BIOTECH, published 2023).
Changes are numbered by the printed parent chain.

Columns and labels:
Experiment in all cases: indirect ELISA, antibody titrated on gB glycoprotein mutant
[1] = molecular target: T1, N208Q mutant of gB glycoprotein (gB_Towne protein) (human cytomegalovirus, strain Towne, UniProt F5HB53 25-700)
T1 construct: also called gB glycoprotein N208Q mutant
T1 chain: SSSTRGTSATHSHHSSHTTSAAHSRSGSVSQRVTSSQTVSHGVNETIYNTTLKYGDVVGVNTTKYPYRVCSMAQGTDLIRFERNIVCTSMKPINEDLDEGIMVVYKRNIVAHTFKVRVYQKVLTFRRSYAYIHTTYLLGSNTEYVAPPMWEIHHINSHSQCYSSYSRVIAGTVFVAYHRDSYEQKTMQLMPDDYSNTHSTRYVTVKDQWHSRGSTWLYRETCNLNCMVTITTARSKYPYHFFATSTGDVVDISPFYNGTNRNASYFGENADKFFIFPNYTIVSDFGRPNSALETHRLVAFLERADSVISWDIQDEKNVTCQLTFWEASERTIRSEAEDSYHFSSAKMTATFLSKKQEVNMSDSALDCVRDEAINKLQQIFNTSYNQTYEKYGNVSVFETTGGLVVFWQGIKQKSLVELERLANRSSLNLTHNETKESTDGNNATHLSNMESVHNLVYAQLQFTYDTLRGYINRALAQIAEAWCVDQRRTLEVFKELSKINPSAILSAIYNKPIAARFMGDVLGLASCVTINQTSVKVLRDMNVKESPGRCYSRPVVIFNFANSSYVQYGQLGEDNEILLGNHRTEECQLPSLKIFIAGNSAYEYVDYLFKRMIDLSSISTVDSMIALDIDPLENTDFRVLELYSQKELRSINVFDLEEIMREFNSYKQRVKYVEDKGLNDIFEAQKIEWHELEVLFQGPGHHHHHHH

[2] = molecular target: T2, gB_Towne protein with N405 mutated into glutamine (human cytomegalovirus, strain Towne, UniProt F5HB53 25-700)
T2 chain: T1 chain with Q184N, N381Q

[3] = molecular target: T3, gB_Towne protein with N383 mutated into glutamine (human cytomegalovirus, strain Towne, UniProt F5HB53 25-700)
T3 chain: T1 chain with Q184N, N359Q

[4] = molecular target: T4, gB_Towne protein with N452 mutated into glutamine (human cytomegalovirus, strain Towne, UniProt F5HB53 25-700)
T4 chain: T1 chain with Q184N, N428Q

Measured: binding result

B1: TRN1019 (antibody, V domains shown)
VH: QVQLVQSGAEVKKPGESLKISCKGSGYTFTNYWIGWVRQMPGAGLEWMAIIFPRDSYSAYSPSFQGRVTISVDKSISTAYLHWSSLEASDTAVYYCAIYNDLRSGNSWGQGTPLIVSS
VL: DIQMTQSPSSLSASVGDRVTITCRASQSITKYLNWYQQKPGRAPKLLIHTTSTLQSGVPSRFSGSGSGTDFTLTISSLQLEDFGTYYCQQSFSTLWTFGQGTKLDIKR
notes: Fully human antibody; kappa light chain
binds: all assays above
